Laboratory results reported in paper PMC9996972.

Target: αVβ3 integrin (rat (endogenous in primary astrocytes)) (UniProt Q8R2H2)
Sequence of UniProt Q8R2H2 (Q8R2H2 whole entry, looked up): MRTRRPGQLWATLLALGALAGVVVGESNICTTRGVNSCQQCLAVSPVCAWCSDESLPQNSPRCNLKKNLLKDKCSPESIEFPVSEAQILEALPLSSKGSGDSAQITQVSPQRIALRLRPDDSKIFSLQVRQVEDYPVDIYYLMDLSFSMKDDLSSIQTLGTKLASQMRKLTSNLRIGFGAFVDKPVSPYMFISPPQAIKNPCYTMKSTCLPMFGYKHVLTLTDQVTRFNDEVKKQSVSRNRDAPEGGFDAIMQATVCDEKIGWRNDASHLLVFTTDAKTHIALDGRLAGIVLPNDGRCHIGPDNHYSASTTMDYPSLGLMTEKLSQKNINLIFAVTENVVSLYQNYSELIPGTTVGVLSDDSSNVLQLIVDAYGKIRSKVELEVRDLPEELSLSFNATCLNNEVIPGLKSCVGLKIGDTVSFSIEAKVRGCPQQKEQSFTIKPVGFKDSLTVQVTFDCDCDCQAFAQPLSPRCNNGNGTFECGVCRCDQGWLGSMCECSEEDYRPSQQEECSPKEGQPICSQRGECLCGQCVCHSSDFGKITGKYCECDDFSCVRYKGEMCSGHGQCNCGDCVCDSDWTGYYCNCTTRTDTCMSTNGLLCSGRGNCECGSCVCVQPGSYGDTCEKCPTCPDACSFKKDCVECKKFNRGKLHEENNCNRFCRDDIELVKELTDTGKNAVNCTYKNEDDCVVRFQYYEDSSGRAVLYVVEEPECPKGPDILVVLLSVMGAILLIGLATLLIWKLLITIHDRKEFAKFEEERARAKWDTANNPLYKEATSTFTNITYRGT

B1: Thy-1-Fc fusion protein (Fc fusion)
chain: QKVTSLTACLVNQNLRLDCRHENNTKDNSIQHEFSLTREKRKHVLSGTLGIPEHTYRSRVTLSNQPYIKVLTLANFTTKDEGDYFCELQVSGANPMSSNKSISVYRDKLVKC
wound closure (migration) of primary astrocytes pretreated with Hp OMVs (2.5 µg/ml, 12 h), then stimulated with Thy-1-Fc/Protein-A for 24 h: 25%
wound closure (migration) of primary astrocytes pretreated with TNF (10 ng/ml, 48 h), then stimulated with Thy-1-Fc/Protein-A for 24 h: 10%
